Data taken from patent US20130071400A1, “LINGO binding molecules and Pharmaceutical Use Thereof” (NOVARTIS AG, priority 2006, published 2013).

T1: cell surface LINGO-1 in CHO-K1-hLINGO-1 cells (Homo sapiens, UniProt Q96FE5)
T1 construct: expressed in transfected cells
T1 sequence (Q96FE5 34-614 isoform Q96FE5-2): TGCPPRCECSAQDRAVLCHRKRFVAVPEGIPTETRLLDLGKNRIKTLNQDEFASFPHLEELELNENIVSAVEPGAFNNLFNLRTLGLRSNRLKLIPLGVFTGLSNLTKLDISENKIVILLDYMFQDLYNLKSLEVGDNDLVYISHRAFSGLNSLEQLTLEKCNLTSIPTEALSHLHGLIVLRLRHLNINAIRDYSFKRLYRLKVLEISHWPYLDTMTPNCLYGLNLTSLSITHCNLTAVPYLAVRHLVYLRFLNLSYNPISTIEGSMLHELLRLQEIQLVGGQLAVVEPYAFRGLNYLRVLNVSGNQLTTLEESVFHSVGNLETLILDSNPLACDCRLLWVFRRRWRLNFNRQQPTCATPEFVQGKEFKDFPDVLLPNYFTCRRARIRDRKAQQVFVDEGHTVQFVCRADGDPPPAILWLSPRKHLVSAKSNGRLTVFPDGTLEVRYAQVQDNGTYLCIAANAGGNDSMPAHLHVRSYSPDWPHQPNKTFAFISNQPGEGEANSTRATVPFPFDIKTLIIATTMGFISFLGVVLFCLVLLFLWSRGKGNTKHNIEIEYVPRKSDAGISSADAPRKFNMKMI


How the values were obtained:
[1] = biological target: T1, cell surface LINGO-1 in CHO-K1-hLINGO-1 cells; assay: Downregulation of cell surface LINGO-1 (anti-V5 detection, TMB-ELISA); format: cell-based; conditions: 100 nM IgG4, 24 hrs at 37° C., CHO-K1-hLINGO-1 cells (FIG. 6A)
Experimental: A) Untransfected CHO-K1 or CHO-K1-hLINGO-1 cells are incubated at 37° C. for 24 hrs with 100 nM 4784, 4785 and 3207 and LINGO-1 detected at the cell surface by a further incubation at room temperature for 30 min with the anti-V5 antibody. The cells are fixed with 4% PFA, blocked with BSA and bound anti-V5 antibody detected using an anti-mouse-IgG (Fc specific)-POD conjugate that is subsequently developed using a 1-Step™ Turbo TMB ELISA kit. The absorbance at 450 nm is taken as a measure of the amount of LINGO-1 at the cell surface (mean of triplicates±STD). A very low level of anti-V5 antibody binding is observed to untransfected CHO-K1 cells. Incubation of CHO-K1-hLINGO-1 cells with anti-LINGO-1 antibodies but not the control IgG4 3207 result in a significant reduction in the amount of LINGO-1 at the cell surface **p<0.01, one-way ANOVA with a Holm-Sidak comparison to the absorbance following incubation with the control IgG4 3207.
To determine the effect of anti-LINGO-1 antibodies on the amount of cell surface LINGO-1, untransfected CHO-K1 or CHO-K1-hLINGO-1 cells (see Example 1) are incubated at 37° C. for 24 hrs with 100 nM 4784, 4785 or 3207 and cell surface LINGO-1 is subsequently detected with an anti-V5 antibody followed by an anti-mouse IgG (Fc specific)-POD conjugate developed with a 1-Step™ Turbo TMB-ELISA kit (Pierce) (FIG. 6A).

[2] = test system: freshly isolated rat OPCs; assay: Primary oligodendrocyte differentiation assay; format: cell-based; conditions: 100 nM IgG4, 3 days in DMEM/CNTF/T3 medium; three independent experiments (FIG. 5)
Experimental: A) Freshly isolated OPCs are treated with 100 nM 4784, 4785 or control IgG4 3207 for 3 days in DMEM/CNTF/T3 medium followed by staining with the anti-04 antibody to visualise immature and mature oligodendrocytes (larger, more diffuse labeling) and the nucleic acid dye DAPI (4′,6-diamidin-2′-phenyl-indol-dihydrochloride) to visualise cell nuclei (smaller circular dots). Oligodendrocytes bearing highly arborised and extended processes and myelin sheet-like structures are considered to have a mature morphology and are indicated with white arrows. Anti-LINGO-1 antibody treatment results in an increase in the proportion of O4-positive cells with a mature morphology whereas treatment with control IgG4 3207 has no effect.
B) The proportion of total (left graph) and mature (right graph) oligodendrocytes is quantified in three independent experiments (1, 2, 3). The left bar graph depicts the percentage of DAPI-stained nuclei associated with O4-staining and the right bar graph depicts the percentage of O4-positive cells with a mature morphology (mean of triplicates+STD). […]
Enriched populations of OPCs are isolated from OFA P3 rats. […] To assess the purity of the cultures with respect to the oligodendrocyte lineage, the percentage of cells that are stained with the anti-04 antibody is quantified after 7 days of culture in SATO medium. […]

Row | Molecule | amount of cell surface LINGO-1 (absorbance at 450 nm) [1] | proportion of oligodendrocytes (O4-positive cells) with a mature morphology [2]
1 | IgG4 4784: monoclonal human anti-LINGO-1 IgG4 antibody; VL SEQ ID NO: 4, VH SEQ ID NO: 5 (antibody, V domains shown, IgG4; 4784 VH; 4784 VL) VH: QVQLKESGPALVKPTQTLTLTCTFSGFSLSSSGVGVGWIRQPPGKALEWLAHIGSDDDKYYSTSLKTRLTISKDTSKNQVVLTMTNMDPVDTATYYCARNQQYGDGYPGYFDYWGQGTLVTVSS VL: DIELTQPPSVSVAPGQTARISCSGDNIGNYYVYWYQQKPGQAPVLVIYEDTNRPSGIPERFSGSNSGNTATLTISGTQAEDEADYYCQSYDNLHEQVFGGGTKLTVLG | significantly downregulate | significantly increase
2 | IgG4 4785: monoclonal human anti-LINGO-1 IgG4 antibody; VL SEQ ID NO: 6, VH SEQ ID NO: 7 (antibody, V domains shown, IgG4; 4785 VH; 4785 VL) VH: QVQLQQSGPGLVKPSQTLSLTCAISGDSVSDNSAAWSWIRQSPGRGLEWLGLIYLRSKWDNDYAVSVKSRITINPDTSKNQFSLQLNSVTPEDTAVYYCARTGRADEFDVWGQGTLVTVSS VL: DIVLTQPPSVSGAPGQRVTISCSGSSSNIGNNYVSWYQQLPGTAPKLLISRNSKRPSGVPDRFSGSKSGTSASLAITGLQSEDEADYYCSTYDTFSIVFGGGTKLTVLG | significantly downregulate | significantly increase
